# In patent publication US20160083436A1 (Janssen / Centocor, published 2016):
# Changes are numbered by the printed parent chain. In names and notes the source's numbering stands. Ends that are not written are not given here.
# B1: ABDCon (non-natural albumin binding domain consensus) (designed binder)
# chain: LKEAKEKAIEELKKAGITSDYYFDLINKAKTVEGVNALKDEILKA
# modifications: not fully specified (N-terminus)
# notes: Expressed in E. coli with an N-terminal 8-His tag; measured mass 6383 Da; not shown: N-terminal 8-His tag
# B2: ABDCon6 (designed binder)
# chain: B1 chain with Y22V
# modifications: not fully specified
# notes: Expressed and purified as described for ABDCon; also called ABDCon Y22V; not shown: N-terminal 8-His tag as for ABDCon
# B3: ABDCon9 (designed binder)
# chain: B1 chain with T31A
# modifications: not fully specified
# notes: Expressed and purified as described for ABDCon; also called ABDCon T31A; not shown: N-terminal 8-His tag as for ABDCon
# B4: ABDCon3 (designed binder)
# chain: B1 chain with Y21K
# modifications: not fully specified
# notes: Expressed and purified as described for ABDCon; also called ABDCon Y21K; not shown: N-terminal 8-His tag as for ABDCon
# B5: ABDCon4 (designed binder)
# chain: B1 chain with Y22A
# modifications: not fully specified
# notes: Expressed and purified as described for ABDCon; also called ABDCon Y22A; not shown: N-terminal 8-His tag as for ABDCon
# B6: ABDCon5 (designed binder)
# chain: B1 chain with Y22S
# modifications: not fully specified
# notes: Expressed and purified as described for ABDCon; also called ABDCon Y22S; not shown: N-terminal 8-His tag as for ABDCon
# B7: ABDCon2 (designed binder)
# chain: B1 chain with Y21A
# modifications: not fully specified
# notes: Expressed and purified as described for ABDCon; also called ABDCon Y21A; not shown: N-terminal 8-His tag as for ABDCon
# B8: ABDCon7 (designed binder)
# chain: B1 chain with E41Q
# modifications: not fully specified
# notes: Expressed and purified as described for ABDCon; also called ABDCon E41Q; not shown: N-terminal 8-His tag as for ABDCon
# B9: ABDCon10 (designed binder)
# chain: B1 chain with A37V
# modifications: not fully specified
# notes: Expressed and purified as described for ABDCon; also called ABDCon A37V; not shown: N-terminal 8-His tag as for ABDCon
# B10: ABDCon8 (designed binder)
# chain: B1 chain with K30D
# modifications: not fully specified
# notes: Expressed and purified as described for ABDCon; also called ABDCon K30D; not shown: N-terminal 8-His tag as for ABDCon
# B11: Tencon25-ABDCon fusion protein (designed binder)
# chain: MLPAPKNLVVSEVTEDSARLSWTAPDAAFDSFLIQYQESEKVGEAIVLTVPGSERSYDLTGLKPGTEYTVSIYGVKGGHRSNPLSAIFTTGGGGSGGGGSLKEAKEKAIEELKKAGITSDYYFDLINKAKTVEGVNALKDEILKA
# notes: not shown: C-terminal poly-histidine tag
# B12: ABDCon12 (designed binder)
# chain: TIDEWLLKEAKEKAIEELKKAGITSDYYFDLINKAKTVEGVNALKDEILKA
# notes: also called ABDCon with N-terminal TIDEWL extension; not shown: N-terminal poly histidine tag
# Columns and labels:
# Rhesus serum albumin [1] = molecular target: T1, Rhesus serum albumin (Rhesus, UniProt Q28522 17-600, limits assumed); test: SPR (ProteOn XPR-36), albumin immobilized, ABDCon as analyte
# T1 construct: Bought from Sigma (A4297)
# Method: (§1) Each serum albumin was directly immobilized on a ligand channel in the vertical orientation of a GLC chip via standard amine coupling at 2.1 μg/mL at pH 5.0 to obtain surfaces with ligand densities of 500-1000 resonance units. […] The dissociation phases for all concentrations were monitored for two hours at a flow rate of 100 μL/min using PBST (PBS, 0.005% Tween20) as running buffer. A sixth sample (buffer only) was injected to monitor the baseline stability. The surfaces were regenerated using 1 short pulse (18 μL) of 0.8% phosphoric acid.
# (§2) The raw response data were first processed by subtracting the buffer only responses and the non-specific binding between the analytes and the chip. Processed data of all five concentrations were globally fit to a 1:1 simple langmuir binding model for each ligand surface.
# human serum albumin [2] = molecular target: T2, human serum albumin (human, UniProt P02768 25-609); test: as above
# T2 construct: Bought from Sigma (A4327); also called HSA
# Method: as §1, §2
# murine serum albumin [3] = molecular target: T3, murine serum albumin (murine, UniProt P07724 25-608); test: as above
# T3 construct: Bought from Sigma (A3559); also called mouse serum albumin; Mouse
# Method: as §1, §2
# Rhesus serum albumin [4] = molecular target: T1, Rhesus serum albumin; test: SPR
# murine serum albumin [5] = molecular target: T3, murine serum albumin; test: SPR
# murine serum albumin [6] = molecular target: T3, murine serum albumin; test: KD column of the mouse PK table; method and albumin species not stated there
# human serum albumin [7] = molecular target: T2, human serum albumin; test: SPR, same methods as Example 2
# Method: as §1, §2
# murine serum albumin [8] = molecular target: T3, murine serum albumin; test: SPR, same methods as Example 2
# Method: as §1, §2
# T1 sequence (Q28522 17-600 limits assumed): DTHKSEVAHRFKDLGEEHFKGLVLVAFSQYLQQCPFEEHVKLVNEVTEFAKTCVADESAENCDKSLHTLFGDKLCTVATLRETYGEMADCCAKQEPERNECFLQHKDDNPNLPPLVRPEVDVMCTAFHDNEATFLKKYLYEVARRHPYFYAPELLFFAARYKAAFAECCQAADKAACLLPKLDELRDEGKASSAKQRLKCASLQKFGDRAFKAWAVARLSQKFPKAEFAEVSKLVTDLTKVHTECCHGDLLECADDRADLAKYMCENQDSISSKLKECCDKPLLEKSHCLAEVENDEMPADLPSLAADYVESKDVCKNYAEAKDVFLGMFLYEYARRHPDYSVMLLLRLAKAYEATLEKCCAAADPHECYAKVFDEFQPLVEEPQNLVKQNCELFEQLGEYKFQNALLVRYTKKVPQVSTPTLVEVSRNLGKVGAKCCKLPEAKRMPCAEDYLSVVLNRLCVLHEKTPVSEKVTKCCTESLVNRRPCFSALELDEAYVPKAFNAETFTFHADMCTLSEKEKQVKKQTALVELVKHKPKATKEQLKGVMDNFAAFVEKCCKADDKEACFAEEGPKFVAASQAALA
# T3 sequence (P07724 25-608 limits assumed): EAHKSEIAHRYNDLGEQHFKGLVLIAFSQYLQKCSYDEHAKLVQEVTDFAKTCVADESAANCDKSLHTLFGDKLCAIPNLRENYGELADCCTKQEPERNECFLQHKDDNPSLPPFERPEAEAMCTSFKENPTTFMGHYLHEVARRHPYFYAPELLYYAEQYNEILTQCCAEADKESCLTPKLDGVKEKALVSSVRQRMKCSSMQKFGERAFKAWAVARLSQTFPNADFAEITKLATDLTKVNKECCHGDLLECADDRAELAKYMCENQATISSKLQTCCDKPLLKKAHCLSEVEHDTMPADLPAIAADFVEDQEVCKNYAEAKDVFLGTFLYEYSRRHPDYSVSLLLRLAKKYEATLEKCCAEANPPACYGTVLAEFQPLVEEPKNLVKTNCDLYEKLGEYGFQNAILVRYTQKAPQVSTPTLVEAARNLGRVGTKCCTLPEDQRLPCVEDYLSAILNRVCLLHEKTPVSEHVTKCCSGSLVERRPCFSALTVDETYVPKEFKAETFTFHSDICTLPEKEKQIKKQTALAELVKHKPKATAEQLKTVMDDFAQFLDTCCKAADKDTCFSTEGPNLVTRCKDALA
binder,measurement,setting,value
B1,Kd,Rhesus serum albumin [1],0.0601 nM
same,koff,Rhesus serum albumin [1],6.78e-05 s⁻¹
same,kon,Rhesus serum albumin [1],1.13e+06 M⁻¹ s⁻¹
same,Kd,human serum albumin [2],0.0748 nM
same,koff,human serum albumin [2],3.02e-05 s⁻¹
same,kon,human serum albumin [2],404000 M⁻¹ s⁻¹
same,Kd,murine serum albumin [3],3.22 nM
same,koff,murine serum albumin [3],0.000776 s⁻¹
same,kon,murine serum albumin [3],241000 M⁻¹ s⁻¹
B2,Kd,Rhesus serum albumin [4],8.4 nM
same,Kd,murine serum albumin [5],190 nM
B3,Kd,Rhesus serum albumin [4],206 nM
same,Kd,murine serum albumin [5],551 nM
B4,Kd,Rhesus serum albumin [4],5.1 nM
same,Kd,murine serum albumin [5],103 nM
B5,Kd,Rhesus serum albumin [4],43.7 nM
same,Kd,murine serum albumin [5],571 nM
B6,Kd,Rhesus serum albumin [4],104 nM
same,Kd,murine serum albumin [5],1650 nM
B7,Kd,Rhesus serum albumin [4],17.5 nM
B8,Kd,Rhesus serum albumin [4],0.5 nM
same,Kd,murine serum albumin [5],20.6 nM
B9,Kd,Rhesus serum albumin [4],1.3 nM
same,Kd,murine serum albumin [5],37.8 nM
B10,Kd,Rhesus serum albumin [4],65 nM
same,Kd,murine serum albumin [5],1000 nM
B11,Kd,murine serum albumin [6],1.86 nM
B12,Kd,human serum albumin [7],0.7 nM
same,Kd,murine serum albumin [8],8.2 nM
